Test results as given in PMC7417364.

Target: Paracoccidioides brasiliensis 1-Cys peroxiredoxin (PbPrx1), recombinant (Paracoccidioides brasiliensis (isolate Pb18))
Assay: SEC; analytical HPLC, Phenomenex BioSep-SEC-S3000 column, 50 uM protein in 100 mM Tris-HCl pH 7.4, run in 100 mM Tris-HCl pH 7.4 with 50 mM NaCl, 1.0 mL/min; samples treated beforehand with 5 mM TCEP (reduced) or 1.2 molar equivalents of H2O2 (oxidised) for 30 min at 25 C; dimeric in both redox states

- stoichiometry N: 2
Substance: Paracoccidioides brasiliensis 1-Cys peroxiredoxin (PbPrx1), recombinant (enzyme)
